In article PMC7866087, “Evaluation of Computationally Designed Peptides against TWEAK, a Cytokine of the Tumour Necrosis Factor Ligand Family” (International Journal of Molecular Sciences, 2021):

How the values were obtained:
human His6-TWEAK protein = molecular target: T1, human His6-TWEAK protein (Homo sapiens, UniProt O43508); assay: SPR binding of peptides to immobilized His6-TWEAK; conditions: for binding affinity for immobilized TWEAK: negative controls, global curve fit not attempted
T1 construct: purchased R&D Systems
T1 sequence (O43508 97-249 limits assumed): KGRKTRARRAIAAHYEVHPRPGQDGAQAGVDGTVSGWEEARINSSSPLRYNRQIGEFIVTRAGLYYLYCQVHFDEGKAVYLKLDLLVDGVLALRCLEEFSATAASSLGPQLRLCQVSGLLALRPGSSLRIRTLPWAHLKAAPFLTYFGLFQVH
Description: SPR biosensor interaction analysis, a label-free screening approach, was used for real-time monitoring of the kinetics and affinity of peptide hits to TWEAK previously identified by cell-based screening. Peptides from pools 1 and 5 were selected both as positive (49, 30, 35 and 43) and negative hits (1 and 42). For our purposes, TWEAK was chosen as ligand, while peptides were chosen as analytes and passed across ligand-derivatized surface. Nitrilotriacetic acid-coated sensor chips (NTA chip) and a coupling approach that results in the capture of a His6-protein in a non-random orientation by the His6 epitope prior to direct free amine-based covalent coupling was used for histidine-tagged TWEAK immobilization.
After chip validation, peptides selected on our cell-based microarray screening were tested.
For each titration, a zero-analyte surface as a control was subtracted from test sensorgram as well as non-specific binding to the blank flow cell without protein; and the chip surface was regenerated in order to remove any remaining analyte. The black curves show the experimental data, while the overlaid red lines represent a global fit of the entire data set to a 1:1 Langmurian interaction model. The fitting process provided both kinetic association and dissociation rate constants (Ka and Kd), as well as equilibrium dissociation constant (KD) values indicated in Figure 6.
Binding assays were performed at 25 °C in a Biacore 3000 instrument (GE Healthcare, Uppsala, Sweden) using nitrilotriacetic (NTA) sensor chips (GE Healthcare) and HBS-EP (0.01 M HEPES pH 7.4, 0.15 M NaCl, 3 mM EDTA, 0.005 % v/v Surfactant P20) as running buffer. Histidine-tagged human TWEAK (His6-TWEAK) protein (R&D Systems, Minneapolis, MN, USA) was covalently immobilized on the sensor surface using a capture coupling method. Briefly, the NTA surface was first stabilized by injection of regeneration buffer (20 μL EDTA-containing running buffer at 20 μL/min) followed by Ni^2+ binding to the surface (40 μL of 500 μM NiCl2 in running buffer at 20 μL/min). The carboxymethyl dextran surface was then activated for primary amine coupling by injecting coupling solution (30 μL of a 1:1 N-hydroxysuccinimide (NHS)/1-ethyl-3-[3-(dimethylamino)-propyl]carbodiimide hydrochloride (EDC) mixture at 5 μL/min). His6-TWEAK protein in pH 7.4 running buffer was then injected over the surface (60 μL of 10 μg/mL His6-TWEAK at 5 μL/min). To block uncoupled primary amines on the sensor surface, ethanolamine was passed over the surface (35 μL 1M ethanolamine at 5 μL/min). Ligand surfaces were finally conditioned with a 20 µL injection of regeneration solution containing 350 mM EDTA at 20 μL/min. Immobilization levels ranged from 1500 to 7000 resonance units (RUimmob) to test different ligand densities. A blank flow cell on the chip was created by simple injection of 20 μL of regeneration buffer injected over the sensor surface.
Binding experiments using a monoclonal anti-TWEAK antibody (Abcam ref. 199405, Cambridge, UK) were run to ascertain adequate functionalization of the immobilized surface. Selected synthetic TWEAK-Fn14 inhibitory peptides at two-fold serial dilutions from 800 µM to 0 µM in running buffer were flown over the chip for 5 min at 35 µL/min. The dissociation phase was monitored for 10 min at the same flow rate and followed by a regeneration step with 10 µL of 18 mM NaOH. Specific binding responses for each channel were obtained by double referencing; subtracting non-specific binding to the blank flow cell plus an internal reference standard, namely buffer injection response. Each sample was run in triplicate. The experimental data were fitted to a 1:1 Langmuir binding model by the BIAevaluation software version 4.1 (GE Healthcare, Uppsala, Sweden).

[1] = system: HT29 cells, NIK expression; assay: Time-course RT-PCR of NIK (MAP4K4), HT29; type: cell-based, human; conditions: TWEAK, 6 to 24 h
[2] = system: HT29 cells, Fn14 gene expression; assay: Fn14 gene expression with TWEAK, HT29 (RT-PCR); type: cell-based, human; conditions: HT29, TWEAK 25 ng/ml
Description: Figure 1 Characterization TWEAK-dependent/not dependent cells. (A) Representative images of Fn14 expression (pink) in BRV5, 435-P and HT29 cells labelled by immunofluorescence. The protein has similar expression in BRV5 and the positive control HT29 cells, and less expressed in 435-P. DAPI (blue) was used for nucleus identification. (B) RT-PCR analysis to quantify Fn14 gene expression of cells cultured in the presence (dark green) or absence (light green) of TWEAK (25 ng/mL) at 48 h. Up-regulation of Fn14 is observed only in HT29 and BRV5 cells. Bars and error bars represent the average and standard deviation as calculated from three replicates respectively. P values represented as: * - significant (Pvalue: 0.01 to 0.05) and **- very-significant (Pvalue: 0.001 to 0.01).
Since the transcriptional activation of Fn14 expression can be induced in cancer cells by the TWEAK-Fn14 interaction, either in a paracrine or autocrine manner, we investigated whether TWEAK transactivates Fn14 (TNFR2F12A) in BRV5 brain metastatic cells. We primed cells with TWEAK and analysed TNFR2F12A gene expression including in the analysis 435-Br1 cells, the first generation of brain metastatic cells BRV5.
Three different cell lines were used in this study: BRV5, MDA-MB 435 (435-P), and HT29. The BRV5 is a highly metastatic brain cell line, obtained in one of our laboratories by primary culture from a brain of a nude mouse inoculated with human 435-Br1 brain metastatic cells, as previously described and used as a model to test the peptides in cell cultures. […] The triple negative 435-P cell line is a useful human breast cancer model that expresses both epithelial and melanocytic markers, and was included as the parental cell from which 435-Br1 metastatic variant was initially originated (both cell lines kindly provided by Dr Fabra at IDIBELL Institute, Hospitalet de Llobregat, Spain). […]

[3] = 25 °C, HBS-EP pH 7.4, Biacore 3000, NTA chip, 1:1 Langmuir global fit, representative of at least three independent experiments

## 1: GNGTDDNSGTSY [Peptide 1]
Human His6-TWEAK protein
  binding affinity for immobilized TWEAK: negligible binding affinity

## 42: YNGHVKDD [Peptide 42]
Human His6-TWEAK protein
  binding affinity for immobilized TWEAK: negligible binding affinity

## SWYDHMAGDSSY [Peptide 35]
Human His6-TWEAK protein; [3]
  ka: 2.06 M⁻¹ s⁻¹
  kd: 0.00285 s⁻¹

B1: tumour necrosis factor-like weak inducer of apoptosis (protein, UniProt O43508 94-249, looked up)
Tumor necrosis factor ligand …: SAPKGRKTRARRAIAAHYEVHPRPGQDGAQAGVDGTVSGWEEARINSSSPLRYNRQIGEFIVTRAGLYYLYCQVHFDEGKAVYLKLDLLVDGVLALRCLEEFSATAASSLGPQLRLCQVSGLLALRPGSSLRIRTLPWAHLKAAPFLTYFGLFQVH
[1]
  NIK expression: highest NIK expression, occurred 6 h after
[2]; technical replicate 1
  Normalized level of expression of Fn14 gene: 0.1964
[2]; technical replicate 2
  Normalized level of expression of Fn14 gene: 0.2154
[2]; technical replicate 3
  Normalized level of expression of Fn14 gene: 0.2052
